Measurements reported in the supplement of paper PMC5998384.

What was measured:
HeLa Kyoto [1] = test: solubility in G1/S (NP-40 vs SDS abundance) (log2 ratio); higher = more soluble; conditions: cell cycle stage: G1/S
HeLa Kyoto [2] = test: solubility change mitosis vs G1/S (difference of NP-40 vs SDS log2 ratios) (log2 ratio difference); higher = more soluble in mitosis
HeLa Kyoto [3] = test: thermal stability score vs G1/S (z-score of summed log2 fold changes over temperatures); higher = more thermally stable than in G1/S
[4] = cell cycle stage: early G1 (4.5 h after nocodazole release)
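Throughout, for solubility change mitosis vs G1/S (difference of NP-40 vs SDS log2 ratios): synchronized HeLa Kyoto cells (double thymidine block for G1/S, nocodazole release for mitosis), protein amounts in NP-40 versus SDS lysates quantified by mass spectrometry, three biological replicates.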
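Throughout, for solubility in G1/S (NP-40 vs SDS abundance): HeLa Kyoto cells arrested at G1/S by double thymidine block, proteins quantified by TMT10plex mass spectrometry in mild NP-40 versus SDS extracts, three biological replicates.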
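Throughout, for thermal stability score vs G1/S (z-score of summed log2 fold changes over temperatures): synchronized HeLa Kyoto cells, proteins quantified by TMT10plex mass spectrometry, three biological replicates, mitosis taken 0.5 h after nocodazole release, G1/S directly after double thymidine block.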

Sequence	solubility in G1/S (log2) (HeLa Kyoto [1])	solubility change mitosis (log2) (HeLa Kyoto [2])	thermal stability score (HeLa Kyoto [3]; [4])	thermal stability score (HeLa Kyoto [3]; cell cycle stage: mitosis)
MDLHRAAFKMENSSYLPNPLASPALMVLASTAEASRDASIPCQQPRPFGVPVSVDKDVHIPFTNGSYTFASMYHRQGGVPGTFANRDFPPSLLHLHPQFAPPNLDCTPISMLNHSGVGAFRPFASTEDRESYQSAFTPAKRLKNCHDTESPHLRFSDADGKEYDFGTQLPSSSPGSLKVDDTGKKIFAVSGLISDREASSSPEDRNDRCKKKAAALFDSQAPICPICQVLLRPSELQEHMEQELEQLAQLPSSKNSLLKDAMAPGTPKSLLLSASIKREGESPTASPHSSATDDLHHSDRYQTFLRVRANRQTRLNARIGKMKRRKQDEGQREGSCMAEDDAVDIEHENNNRFEEYEWCGQKRIRATTLLEGGFRGSGFIMCSGKENPDSDADLDVDGDDTLEYGKPQYTEADVIPCTGEEPGEAKEREALRGAVLNGGPPSTRITPEFSKWASDEMPSTSNGESSKQEAMQKTCKNSDIEKITEDSAVTTFEALKARVRELERQLSRGDRYKCLICMDSYSMPLTSIQCWHVHCEECWLRTLGAKKLCPQCNTITAPGDLRRIYL [RNF220]	0.298	-0.0624	0.0151	-0.144
MSSLGASFVQIKFDDLQFFENCGGGSFGSVYRAKWISQDKEVAVKKLLKIEKEAEILSVLSHRNIIQFYGVILEPPNYGIVTEYASLGSLYDYINSNRSEEMDMDHIMTWATDVAKGMHYLHMEAPVKVIHRDLKSRNVVIAADGVLKICDFGASRFHNHTTHMSLVGTFPWMAPEVIQSLPVSETCDTYSYGVVLWEMLTREVPFKGLEGLQVAWLVVEKNERLTIPSSCPRSFAELLHQCWEADAKKRPSFKQIISILESMSNDTSLPDKCNSFLHNKAEWRCEIEATLERLKKLERDLSFKEQELKERERRLKMWEQKLTEQSNTPLLPSFEIGAWTEDDVYCWVQQLVRKGDSSAEMSVYASLFKENNITGKRLLLLEEEDLKDMGIVSKGHIIHFKSAIEKLTHDYINLFHFPPLIKDSGGEPEENEEKIVNLELVFGFHLKPGTGPQDCKWKMYMEMDGDEIAITYIKDVTFNTNLPDAEILKMTKPPFVMEKWIVGIAKSQTVECTVTYESDVRTPKSTKHVHSIQWSRTKPQDEVKAVQLAIQTLFTNSDGNPGSRSDSSADCQWLDTLRMRQIASNTSLQRSQSNPILGSPFFSHFDGQDSYAAAVRRPQVPIKYQQITPVNQSRSSSPTQYGLTKNFSSLHLNSRDSGFSSGNTDTSSERGRYSDRSRNKYGRGSISLNSSPRGRYSGKSQHSTPSRGRYPGKFYRVSQSALNPHQSPDFKRSPRDLHQPNTIPGMPLHPETDSRASEEDSKVSEGGWTKVEYRKKPHRPSPAKTNKERARGDHRGWRNF [ZAK]	-1.14	0.649	-0.231	-2.89
MAKAAASSSLEDLDLSGEEVQRLTSAFQDPEFRRMFSQYAEELTDPENRRRYEAEITALERERGVEVRFVHPEPGHVLRTSLDGARRCFVNVCSNALVGAPSSRPGSGGDRGAAPGSHWSLPYSLAPGREYAGRSSSRYMVYDVVFHPDALALARRHEGFRQMLDATALEAVEKQFGVKLDRRNAKTLKAKYKGTPEAAVLRTPLPGVIPARPDGEPKGPLPDFPYPYQYPAAPGPRAPSPPEAALQPAPTEPRYSVVQRHHVDLQDYRCSRDSAPSPVPHELVITIELPLLRSAEQAALEVTRKLLCLDSRKPDYRLRLSLPYPVDDGRGKAQFNKARRQLVVTLPVVLPAARREPAVAVAAAAPEESADRSGTDGQACASAREGEAGPARSRAEDGGHDTCVAGAAGSGVTTLGDPEVAPPPAAAGEERVPKPGEQDLSRHAGSPPGSVEEPSPGGENSPGGGGSPCLSSRSLAWGSSAGRESARGDSSVETREESEGTGGQRSACAMGGPGTKSGEPLCPPLLCNQDKETLTLLIQVPRIQPQSLQGDLNPLWYKLRFSAQDLVYSFFLQFAPENKLSTTEPVISISSNNAVIELAKSPESHGHWREWYYGVNNDSLEERLFVNEENVNEFLEEVLSSPFKQSMSLTPPLIEVLQVTDNKIQINAKLQECSNSDQLQGKEERVNEESHLTEKEYIEHCNTPTTDSDSSIAVKALQIDSFGLVTCFQQESLDVSQMILGKSQQPESKMQSEFIKEKSATCSNEEKDNLNESVITEEKETDGDHLSSLLNKTTVHNIPGFDSIKETNMQDGSVQVIKDHVTNCAFSFQNSLLYDLD [DNAAF2]	-0.0763	0.11	-0.286	-0.17
MIDSVKLRRDSAADFFSHYEYLCALQNSVPLPAVRACLREGVLDFNADRLRGVDWAPLLSTLKINKDLPLVSIKSFFQPWLGDTGSDMNKFCRSRVPAIRYKDVTFQLCKALKGCLSISSVLKNLELNGLILRERDLTILAKGLNKSASLVHLSLANCPIGDGGLEIICQGIKSSITLKTVNFTGCNLTWQGADHMAKILKYQTMRRHEETWAESLRYRRPDLDCMAGLRRITLNCNTLIGDLGACAFADSLSEDLWLRALDLQQCGLTNEGAKALLEALETNTTLVVLDIRKNPLIDHSMMKAVIKKVLQNGRSAKSEYQWITSPSVKEPSKTAKQKRRTIILGSGHKGKATIRIGLATKKPVSSGRKHSLGKEYYAPAPLPPGVSGFLPWRTAERAKRHRGFPLIKTRDICNQLQQPGFPVTVTVESPSSSEVEEVDDSSESVHEVPEKTSIEQEALQEKLEECLKQLKEERVIRLKVDKRVSELEHENAQLRNINFSLSEALHAQSLTNMILDDEGVLGSIENSFQKFHAFLDLLKDAGLGQLATMAGIDQSDFQLLGHPQMTSTVSNPPKEEKKALEDEKPEPKQNALGQMQNIQFQKITGDARIPLPLDSFPVPVSTPEGLGTSSNNLGVPATEQRQESFEGFIARMCSPSPDATSGTGSQRKEEELSRNSRSSSEKKTKTESH [CEP78]	0.0898	0.821	2.82	3.49
MAALTIATGTGNWFSALALGVTLLKCLLIPTYHSTDFEVHRNWLAITHSLPISQWYYEATSEWTLDYPPFFAWFEYILSHVAKYFDQEMLNVHNLNYSSSRTLLFQRFSVIFMDVLFVYAVRECCKCIDGKKVGKELTEKPKFILSVLLLWNFGLLIVDHIHFQYNGFLFGLMLLSIARLFQKRHMEGAFLFAVLLHFKHIYLYVAPAYGVYLLRSYCFTANKPDGSIRWKSFSFVRVISLGLVVFLVSALSLGPFLALNQLPQVFSRLFPFKRGLCHAYWAPNFWALYNALDKVLSVIGLKLKFLDPNNIPKASMTSGLVQQFQHTVLPSVTPLATLICTLIAILPSIFCLWFKPQGPRGFLRCLTLCALSSFMFGWHVHEKAILLAILPMSLLSVGKAGDASIFLILTTTGHYSLFPLLFTAPELPIKILLMLLFTIYSISSLKTLFRKEKPLFNWMETFYLLGLGPLEVCCEFVFPFTSWKVKYPFIPLLLTSVYCAVGITYAWFKLYVSVLIDSAIGKTKKQ [ALG8]	-0.668	-0.131	-0.785	-1.28
